Usually Kd stands for a measure of binding affinity in units of concentration. Low readings indicate tighter binding, high ones weaker binding.

Numbering of substitutions follows the chain as printed. In names and notes the source's numbering stands.

The source of these data is article PMC10786891, “Massively parallel profiling of RNA-targeting CRISPR-Cas13d”.

Sequences and labels used below:
B1: target 1 C2A,C7G (mixed)
RNA 1: CACCCGUGCAAAAAUGCAGGGGUCUAAAACUGAGCGGAUAACCUCUCUAUGG
RNA 2: GGGAAUGGAUCCACAUCUACGAAUUCGUACCAUAGAGAGGUUAUGCGCUAACCGAGAUCGGAAGAGCACACGU
B2: target 1 U3A,A14C (mixed)
RNA 1: B1 RNA 1
RNA 2: B1 RNA 2 with A38C, G45C, U49A, A50C
B3: target 1 insA 3' of 10,insU 3' of 5 (mixed)
RNA 1: B1 RNA 1
RNA 2: GGGAAUGGAUCCACAUCUACGAAUUCGUACCAUAGAGAGGUUAAUCCGUCUCACCGAGAUCGGAAGAGCACACGU
B4: target 1 insC 3' of 22,insG 3' of 22 (mixed)
RNA 1: B1 RNA 1
RNA 2: GGGAAUGGAUCCACAUCUACGAAUUCGUACCGCAUAGAGAGGUUAUCCGCUCACCGAGAUCGGAAGAGCACACGU
B5: target 1 A1U,G15C (mixed)
RNA 1: B1 RNA 1
RNA 2: B1 RNA 2 with G37C, G45C, A50C, A51U
B6: target 1 C6G,C7G (mixed)
RNA 1: B1 RNA 1
RNA 2: B1 RNA 2 with C46G, A50C
B7: target 1 insU 3' of 22 (mixed)
RNA 1: B1 RNA 1
RNA 2: GGGAAUGGAUCCACAUCUACGAAUUCGUACUCAUAGAGAGGUUAUCCGCUCACCGAGAUCGGAAGAGCACACGU
B8: target 1 insA 3' of 11,insA 3' of 6 (mixed)
RNA 1: B1 RNA 1
RNA 2: B3 RNA 2 with U42A, A43U, G48A, U49G
B9: target 1 U19A (mixed)
RNA 1: B1 RNA 1
RNA 2: B1 RNA 2 with U33A, G45C, A50C
B10: target 1 insC 3' of 13,insA 3' of 11 (mixed)
RNA 1: B1 RNA 1
RNA 2: B4 RNA 2 with G32A, C33U, U35G, A40C, G42U, U43A
B11: target 1 U10C,A16C (mixed)
RNA 1: B1 RNA 1
RNA 2: B1 RNA 2 with A36C, U42C, G45C, A50C
B12: target 1 C7G,G13A (mixed)
RNA 1: B1 RNA 1
RNA 2: B1 RNA 2 with G39A, A50C
B13: target 1 insC 3' of 5,insU 3' of 2 (mixed)
RNA 1: B1 RNA 1
RNA 2: B3 RNA 2 with A44U, U45C, C47G, G48C, U49C, C50U, U51C, C52U
B14: target 1 G5U,A16C (mixed)
RNA 1: B1 RNA 1
RNA 2: B1 RNA 2 with A36C, G45C, G47U, A50C
B15: target 1 insG 3' of 22,insG 3' of 16 (mixed)
RNA 1: B1 RNA 1
RNA 2: B4 RNA 2 with C31G, G32C, C33A, A34U, U35A, A36G, G37A, A38G
B16: target 1 insG 3' of 22,insA 3' of 6 (mixed)
RNA 1: B1 RNA 1
RNA 2: GGGAAUGGAUCCACAUCUACGAAUUCGUACGCAUAGAGAGGUUAUCCAGCUCACCGAGAUCGGAAGAGCACACGU
B17: target 1 insA 3' of 19,insG 3' of 4 (mixed)
RNA 1: B1 RNA 1
RNA 2: B16 RNA 2 with G31C, C32A, A33U, U34A, A48G, G49C, C50G
B18: target 1 A9C,C21U (mixed)
RNA 1: B1 RNA 1
RNA 2: B1 RNA 2 with C31U, A43C, G45C, A50C
B19: target 1 C4U,U10C (mixed)
RNA 1: B1 RNA 1
RNA 2: B1 RNA 2 with U42C, G45C, C48U, A50C
B20: target 1 U8G,G12C (mixed)
RNA 1: B1 RNA 1
RNA 2: B1 RNA 2 with G40C, U44G, G45C, A50C
B21: target 1 insG 3' of 22,insA 3' of 22 (mixed)
RNA 1: B1 RNA 1
RNA 2: B4 RNA 2 with C31G, G32A
B22: target 1 insU 3' of 14,insA 3' of 6 (mixed)
RNA 1: B1 RNA 1
RNA 2: B3 RNA 2 with G39U, U41G, A43U, G48A, U49G
B23: target 1 insG 3' of 18,insA 3' of 2 (mixed)
RNA 1: B1 RNA 1
RNA 2: GGGAAUGGAUCCACAUCUACGAAUUCGUACCAUAGGAGAGGUUAUCCGCUCAACCGAGAUCGGAAGAGCACACGU
B24: target 1 insA 3' of 10,insU 3' of 7 (mixed)
RNA 1: B1 RNA 1
RNA 2: B3 RNA 2 with C47U, G48C, U49G
B25: target 1 U11C,C21A (mixed)
RNA 1: B1 RNA 1
RNA 2: B1 RNA 2 with C31A, U41C, G45C, A50C
B26: target 1 insU 3' of 17,insU 3' of 6 (mixed)
RNA 1: B1 RNA 1
RNA 2: B23 RNA 2 with G36U, G48U, C49G, U50C, C51U, A52C
B27: target 1 insA 3' of 12,insA 3' of 3 (mixed)
RNA 1: B1 RNA 1
RNA 2: B3 RNA 2 with U41A, A43U, U49C, C50U, U51A
B28: target 1 insC 3' of 19,insC 3' of 11 (mixed)
RNA 1: B1 RNA 1
RNA 2: B16 RNA 2 with G31C, C32A, A33U, U34C, U43C, A44U, U45A, C46U, A48C
B29: target 1 A9U,A18U (mixed)
RNA 1: B1 RNA 1
RNA 2: B1 RNA 2 with A34U, A43U, G45C, A50C
B30: target 1 insC 3' of 19,insU 3' of 9 (mixed)
RNA 1: B1 RNA 1
RNA 2: B16 RNA 2 with G31C, C32A, A33U, U34C, C46U, A48C
B31: target 1 G12A,A18C (mixed)
RNA 1: B1 RNA 1
RNA 2: B1 RNA 2 with A34C, G40A, G45C, A50C

For the data set, the target named is T1, EsCas13d, nuclease-dead (Eubacterium siraeum, UniProt B0MS50, R295A;H300A;R849A;H854A).
T1 sequence: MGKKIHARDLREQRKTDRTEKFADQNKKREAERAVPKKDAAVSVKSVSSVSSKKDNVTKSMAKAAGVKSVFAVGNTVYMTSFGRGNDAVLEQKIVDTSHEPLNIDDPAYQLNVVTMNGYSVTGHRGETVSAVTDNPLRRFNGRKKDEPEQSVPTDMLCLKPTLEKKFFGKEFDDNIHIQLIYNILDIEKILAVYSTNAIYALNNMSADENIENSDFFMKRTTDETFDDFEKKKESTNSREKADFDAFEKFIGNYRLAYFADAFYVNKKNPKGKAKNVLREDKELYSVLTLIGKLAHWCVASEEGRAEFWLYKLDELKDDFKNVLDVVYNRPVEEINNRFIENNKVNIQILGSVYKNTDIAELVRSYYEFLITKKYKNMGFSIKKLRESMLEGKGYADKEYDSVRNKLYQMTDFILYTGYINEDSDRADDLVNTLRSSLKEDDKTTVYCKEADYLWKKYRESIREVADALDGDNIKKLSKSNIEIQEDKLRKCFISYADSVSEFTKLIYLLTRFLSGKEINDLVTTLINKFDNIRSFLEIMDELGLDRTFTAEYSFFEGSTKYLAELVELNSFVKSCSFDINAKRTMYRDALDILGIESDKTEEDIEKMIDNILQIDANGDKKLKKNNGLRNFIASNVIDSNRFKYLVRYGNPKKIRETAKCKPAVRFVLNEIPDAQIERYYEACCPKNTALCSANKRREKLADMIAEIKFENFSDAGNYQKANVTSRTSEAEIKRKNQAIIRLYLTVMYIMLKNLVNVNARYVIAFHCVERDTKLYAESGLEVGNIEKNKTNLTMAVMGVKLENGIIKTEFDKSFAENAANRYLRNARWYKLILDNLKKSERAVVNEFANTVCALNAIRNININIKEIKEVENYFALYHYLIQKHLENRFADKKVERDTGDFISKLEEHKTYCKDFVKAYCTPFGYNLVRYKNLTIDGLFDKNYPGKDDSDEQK
Description: crRNA (strand 1, pre-loaded); Mg2+; 40 mM Tris-HCl pH 7.5, 150 mM NaCl, 6 mM MgCl2, 1 mM DTT, 0.1% Tween-20, 0.2 mg/ml BSA; 25 C; 10 min per concentration, then washed. Particulars: tags: His6-TwinStrep-SUMO cleaved; N-terminal SNAP kept (SNAP-Surface 488); label: 3' end held by stalled T7 RNA polymerase.
Molecule B1 gave a Kd of 15.4 ± 0.9 nM.

B2 came in with a Kd of 20.8 ± 1 nM.

B3 displayed a Kd of 14.2 ± 1.1 nM.

As for B4, the equilibrium dissociation constant (Kd) came to 12.6 ± 0.6 nM.

In turn, B5 came in with a Kd of 56 ± 24 nM. This Kd is about 4.4-fold higher than that of the molecule before.

Take B6: the Kd stood at 13.3 ± 0.7 nM.

B7 came in with a Kd of 38 ± 5 nM.

In turn, B8 yielded a Kd of 13.2 ± 1 nM.

B9: binding was put at a Kd of 28.8 ± 1.5 nM.

For B10, the affinity, expressed as Kd, was 19.1 ± 2.2 nM.

Molecule B11 had a Kd of 95 ± 8 nM.

In turn, B12 yielded a Kd of 15.8 ± 1.5 nM. Compared with the last molecule, the Kd is about 6-fold lower.

Consider B13, for which the affinity, expressed as Kd, was 15.2 ± 0.6 nM.

For B14, the dissociation constant (Kd) came out at 60 ± 7 nM.

The molecule B15 came in with a Kd of 57 ± 8 nM.

As to B16, the Kd is 54 ± 18 nM.

Regarding B17, the affinity, expressed as Kd, was 15.1 ± 0.7 nM.

The molecule B18 came in with a Kd of 9.9 ± 0.4 nM.

Molecule B19 yielded a Kd of 52 ± 23 nM. Against the preceding molecule, the Kd is about 5.3-fold higher.

B20: binding was characterised by a dissociation constant (Kd) of 16.4 ± 0.8 nM.

As to B21, the affinity, expressed as Kd, was 30.8 ± 2.9 nM.

For B22, the Kd was 80 ± 32 nM.

B23: the Kd was determined as 73 ± 25 nM.

As to B24, the Kd is 39.3 ± 2.6 nM. Compared with the last molecule, the Kd is about 1.9-fold lower.

Regarding B25, binding was characterised by a dissociation constant (Kd) of 51 ± 6 nM. The Kd values of the last two molecules are within 1.5-fold of each other.

Take B26: binding was put at a Kd of 29.7 ± 2.9 nM.

With B27, binding was characterised by a dissociation constant (Kd) of 20.5 ± 1.2 nM.

On to B28, for which the Kd stood at 48 ± 9 nM.

B29 returned a Kd of 44.9 ± 3.5 nM.

The molecule B30 displayed a Kd of approximately 80 nM.

B31 had a dissociation constant Kd of 51 ± 7 nM.
